The text below walks through data of US20220340678A1 (MURAL ONCOLOGY, published 2022).

Assay [1] deals with T1, IL-2/IL-15 receptor on HH cells (human).
T1 chain 1: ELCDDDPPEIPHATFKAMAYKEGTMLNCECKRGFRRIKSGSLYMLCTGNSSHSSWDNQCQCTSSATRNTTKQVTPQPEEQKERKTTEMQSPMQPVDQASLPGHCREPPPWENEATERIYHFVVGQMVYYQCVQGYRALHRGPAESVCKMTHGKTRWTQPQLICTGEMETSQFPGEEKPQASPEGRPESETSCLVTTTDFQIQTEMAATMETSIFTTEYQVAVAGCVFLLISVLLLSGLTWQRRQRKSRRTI
T1 chain 2: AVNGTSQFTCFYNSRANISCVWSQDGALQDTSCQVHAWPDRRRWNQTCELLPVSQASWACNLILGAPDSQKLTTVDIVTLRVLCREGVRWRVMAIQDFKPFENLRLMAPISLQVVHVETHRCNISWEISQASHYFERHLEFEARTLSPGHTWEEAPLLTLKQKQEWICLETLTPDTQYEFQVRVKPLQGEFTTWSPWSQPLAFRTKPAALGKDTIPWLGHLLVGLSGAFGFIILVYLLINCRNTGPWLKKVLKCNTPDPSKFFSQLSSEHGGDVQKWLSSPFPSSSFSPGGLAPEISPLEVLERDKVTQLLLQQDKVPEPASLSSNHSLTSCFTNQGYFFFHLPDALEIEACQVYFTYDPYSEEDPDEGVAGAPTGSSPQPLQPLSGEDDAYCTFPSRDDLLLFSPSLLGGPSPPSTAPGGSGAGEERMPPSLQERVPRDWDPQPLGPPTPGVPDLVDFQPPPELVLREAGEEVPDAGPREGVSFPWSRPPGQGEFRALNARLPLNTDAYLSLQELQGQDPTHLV
T1 chain 3: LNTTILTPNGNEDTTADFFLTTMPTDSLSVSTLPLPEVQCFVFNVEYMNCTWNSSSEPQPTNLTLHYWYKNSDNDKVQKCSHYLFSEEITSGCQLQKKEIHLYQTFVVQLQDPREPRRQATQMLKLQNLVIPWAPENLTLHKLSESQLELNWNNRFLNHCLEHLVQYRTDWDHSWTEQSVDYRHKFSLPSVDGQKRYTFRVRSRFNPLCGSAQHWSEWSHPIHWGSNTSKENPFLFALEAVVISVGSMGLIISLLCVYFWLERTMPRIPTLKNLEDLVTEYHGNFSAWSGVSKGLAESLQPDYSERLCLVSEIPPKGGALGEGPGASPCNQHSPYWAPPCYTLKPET
Nature of the assay: cell-based or functional assay.

The target in assay [2] is Human uPAR DII-DIII domain HisAvi Tag (human, biotinylated (site not stated)). Nature of the assay: BLI (Octet), biotinylated domain on SA sensor, antibody 200 nM.
Assay [3] deals with T2, histidine-tagged human uPAR (Sino#10925-H08H) (human, UniProt Q03405 23-303).
T2 construct: also called uPAR-His
Nature of the assay: BLI (Octet), uPAR on sensor, antibody in solution (avidity).

In assay [4] the target is T2, histidine-tagged human uPAR …. Nature of the assay: BLI (Octet), antibody on anti-mouse Fc sensor, uPAR in solution.
Assay [5] concerns the target T3, biotinylated human uPAR (human, UniProt Q03405 23-303, limits assumed, biotinylated (site not stated)). The assay is described as follows: BLI (Octet) on biotinylated human uPAR; row 'None': no first antibody.
The target of assay [6] is T4, human uPAR expressed on HEK293 cells (human, UniProt Q03405 23-305).
T4 construct: whole, on cells; also called Hu-uPAR
Nature of the assay: flow cytometry, HEK293 cells expressing human uPAR, 100 nM uPA present.

Assay [7] concerns the target T5, mouse uPAR on cells (mouse, UniProt P35456 24-298).
T5 construct: whole, on cells; also called Ms-uPAR; mouse uPAR (CD87)
T5 sequence (looked up): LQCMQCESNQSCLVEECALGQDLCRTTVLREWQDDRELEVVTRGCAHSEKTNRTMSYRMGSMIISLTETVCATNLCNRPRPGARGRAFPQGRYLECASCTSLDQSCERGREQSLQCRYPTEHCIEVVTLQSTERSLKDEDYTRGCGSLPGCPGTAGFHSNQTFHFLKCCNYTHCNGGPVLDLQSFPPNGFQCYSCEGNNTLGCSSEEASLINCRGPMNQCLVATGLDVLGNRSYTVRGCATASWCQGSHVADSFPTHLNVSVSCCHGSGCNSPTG
Nature of the assay: flow cytometry, HEK293 cells expressing mouse uPAR, 100 nM uPA present.

Assay [8] deals with T3, biotinylated human uPAR. Nature of the assay: BLI (Octet) competition on biotinylated human uPAR; competitor (first antibody): M1.
The target of assay [9] is T3, biotinylated human uPAR. Nature of the assay: BLI (Octet) competition on biotinylated human uPAR; competitor (first antibody): M5.
The target in assay [10] is T3, biotinylated human uPAR. The assay is described as follows: BLI (Octet) competition on biotinylated human uPAR; competitor (first antibody): ATN-368 (ATN-658).
For assay [11], the target named is IL-2/IL-15 receptor on primary mouse splenocytes (mouse). The assay is described as follows: cell-based or functional assay.
Assay [12] concerns the target T6, Recombinant mouse uPAR-Fc (R&D Systems, Cat. No. 531-PA-100) (mouse, UniProt P35456 24-297, limits assumed).
T6 construct: not shown: Fc of the bought fusion (captured with the human antibody capture kit); not described
T6 sequence (looked up): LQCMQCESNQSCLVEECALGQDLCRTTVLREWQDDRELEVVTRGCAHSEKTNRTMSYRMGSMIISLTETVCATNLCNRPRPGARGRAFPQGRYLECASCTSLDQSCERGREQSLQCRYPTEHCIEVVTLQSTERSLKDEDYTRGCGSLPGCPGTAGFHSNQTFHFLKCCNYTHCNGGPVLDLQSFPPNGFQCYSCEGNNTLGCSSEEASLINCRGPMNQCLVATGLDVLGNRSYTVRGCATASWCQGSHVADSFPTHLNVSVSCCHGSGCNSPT
The assay is described as follows: SPR (Biacore), mouse uPAR-Fc captured on anti-human antibody chip.

The target in assay [13] is T5, mouse uPAR on cells. The assay is described as follows: flow cytometry on MC38 cells (express mouse uPAR), anti-His detection.
For assay [14], the target named is Recombinant human uPAR his (R&D Systems, 807-UK-100/CF) (human, UniProt Q03405 23-303, biotinylated (sites not given)). The assay is described as follows: SPR (Biacore), biotinylated human uPAR his on streptavidin chip.

B1: Human cpIL-2:IL-2Ra (other)
chain: SKNFHLRPRDLISNINVIVLELKGSETTFMCEYADETATIVEFLNRWITFSQSIISTLTGGSSSTKKTQLQLEHLLLDLQMILNGINNYKNPKLTRMLTFKFYMPKKATELKHLQCLEEELKPLEEVLNLAQGSGGGSELCDDDPPEIPHATFKAMAYKEGTMLNCECKRGFRRIKSGSLYMLCTGNSSHSSWDNQCQCTSSATRNTTKQVTPQPEEQKERKTTEMQSPMQPVDQASLPGHCREPPPWENEATERIYHFVVGQMVYYQCVQGYRALHRGPAESVCKMTHGKTRWTQPQLICTG
As to B1, in [1], the “pSTAT5 EC50, HH cells” value was found to be 1.1 nM.

B2: M5 (antibody, V domains shown)
VH: QVQLKESGPGLVAPSQSLSITCTVSGFSLTNYGVHWVRQPPGKDLEWLVVIWSDGGTTYNSALKSRLSISKDNSKSQVFLKMNSLQTDDTAMYYCARGGRSDLFAYWGQGTLVTVSA
VL: DVLMTQTPLSLPVSLGDQASISCRSSQSIVHSNGNTYLEWYLQKPGQSPKLLIYKVSNRFSGVPDRFSGSGSGTDFTLKISRVEAEDLGVYYCFQGSHVPYTFGGGTKLEIK
notes: Mouse hybridoma antibody; also called anti-uPAR antibody M5; parental M5
Turning to B2, the binding result in [2] was “binds”. Moreover, the Kd in assay [3] is less than 1 pM; in assay [4] it was 33.1 nM. The koff in assay [3] was less than 1e-07 s⁻¹; in assay [4] it was 0.000962 s⁻¹. Moreover, the figures for the kon in assay [3] and in assay [4] were 28300 M⁻¹ s⁻¹ and 29100 M⁻¹ s⁻¹, respectively. Further, the “response in competition assay” value in assay [5] is 0.181; in [8], 0.161; in assay [9], -0.0173; in assay [10] it was 0.179. The results for the EC50 in [6] and in assay [7] were 2.53 nM and 93.8 nM, respectively.

B3: His6:Mouse uPA-ATF:mouse IL-15Ra:cpIL-15 (other)
chain: HHHHHHGSVLGAPDESNCGCQNGGVCVSYKYFSRIRRCSCPRKFQGEHCEIDASKTCYHGNGDSYRGKANTDTKGRPCLAWNAPAVLQKPYNAHRPDAISLGLGKHNYCRNPDNQKRPWCYVQIGLRQFVQECMVHDCGGSGGTTCPPPVSIEHADIRVKNYSVNSRERYVCNSGFKRKAGTSTLIECVINKNTNVAHWTTPSLKCIRDGGSELEEKTFTEFLQSFIRIVQMFINGGGSNWIDVRYDLEKIESLIQSIHIDTTLYTDSDFHPSCKVTAMNCFLLELQVILHEYSNMTLNETVRNVLYLANSTLSSNKNVAESGCKEC
notes: also called 102
On to B3, for which, in assay [11], the “pSTAT5 EC50, mouse NK cells” value amounted to 0.15 nM; the “pSTAT5 EC50, mouse Tregs” value was found to be 1.7 nM; the “pSTAT5 EC50, mouse memory CD8 T cells” value worked out at 0.5 nM. In addition, in assay [12], the Kd worked out at 0.14 nM, the koff was 0.0002 s⁻¹ and the kon was 1.5e+06 M⁻¹ s⁻¹. This molecule also gave an EC50 in assay [13] of 0.41 nM.

B4: Human cpIL-2:IL-2Ra:Human uPA-ATF-His6 (other)
chain: SKNFHLRPRDLISNINVIVLELKGSETTFMCEYADETATIVEFLNRWITFSQSIISTLTGGSSSTKKTQLQLEHLLLDLQMILNGINNYKNPKLTRMLTFKFYMPKKATELKHLQCLEEELKPLEEVLNLAQGSGGGSELCDDDPPEIPHATFKAMAYKEGTMLNCECKRGFRRIKSGSLYMLCTGNSSHSSWDNQCQCTSSATRNTTKQVTPQPEEQKERKTTEMQSPMQPVDQASLPGHCREPPPWENEATERIYHFVVGQMVYYQCVQGYRALHRGPAESVCKMTHGKTRWTQPQLICTGGGSGGSNELHQVPSNCDCLNGGTCVSNKYFSNIHWCNCPKKFGGQHCEIDKSKTCYEGNGHFYRGKASTDTMGRPCLPWNSATVLQQTYHAHRSDALQLGLGKHNYCRNPDNRRRPWCYVQVGLKPLVQECMVHDCAHHHHHH
notes: also called 99
As for B4, the “pSTAT5 EC50, HH cells” value in assay [1] came to 1.5 nM. For the same molecule, in [14], the Kd turned out to be 0.59 nM, the koff was 0.00049 s⁻¹ and the kon stood at 830000 M⁻¹ s⁻¹.

B5: His6:Human uPA-ATF:hIL-15Ra:cpIL-15 (other)
chain: HHHHHHSNELHQVPSNCDCLNGGTCVSNKYFSNIHWCNCPKKFGGQHCEIDKSKTCYEGNGHFYRGKASTDTMGRPCLPWNSATVLQQTYHAHRSDALQLGLGKHNYCRNPDNRRRPWCYVQVGLKPLVQECMVHDCAGGSGGITCPPPMSVEHADIWVKSYSLYSRERYICNSGFKRKAGTSSLTECVLNKATNVAHWTTPSLKCIRDGGSELEEKNIKEFLQSFVHIVQMFINGGGSNWVNVISDLKKIEDLIQSMHIDATLYTESDVHPSCKVTAMKCFLLELQVISLESGDASIHDTVENLIILANNSLSSNGNVTESGCKEC
notes: also called 100
With B5, the “pSTAT5 EC50, HH cells” value in [1] amounted to 0.18 nM. For the same molecule, in [14], the Kd was found to be 1.1 nM, the koff was 0.00056 s⁻¹ and the kon was found to be 500000 M⁻¹ s⁻¹.

B6: Human IL-15Ra:cpIL-15 (other)
chain: ITCPPPMSVEHADIWVKSYSLYSRERYICNSGFKRKAGTSSLTECVLNKATNVAHWTTPSLKCIRDGGSELEEKNIKEFLQSFVHIVQMFINGGGSNWVNVISDLKKIEDLIQSMHIDATLYTESDVHPSCKVTAMKCFLLELQVISLESGDASIHDTVENLIILANNSLSSNGNVTESGCKEC
With B6, the “pSTAT5 EC50, HH cells” value in assay [1] is 39 pM.

B7: M43 (antibody, V domains shown)
VH: QVQLQQSGAELARPGASVNLSCKASGYTFTSYGISWVKQRTGQGLEWIGEIYPRSGNTYYNEKFKGKATLTADKSSRTAYMELRSLTSEDSAVYFCAGKDYGSTYADYWGQGTTLTVSS
VL: QIVLTQSPAIMSASPGEKVTMTCSASSSVSSRYLHWYQQKSGASPKLWIYGTSNLASGVPARFSGSGSGTSYSLTINSVEAEDAATYYCQQYHSDPLTFGAGTKLELK
notes: Mouse hybridoma antibody; also called anti-uPAR antibody M43; parental M43
With B7, the binding result in [2] was “binds”. Also, the values for the Kd in assay [3] and in assay [4] were less than 1 pM and 7.47 nM, respectively. The koff was less than 1e-07 s⁻¹ in [3] and 0.00883 s⁻¹ in assay [4]. In addition, the figures for the kon in assay [3] and in assay [4] were 554000 M⁻¹ s⁻¹ and 1.18e+06 M⁻¹ s⁻¹, respectively. Also, the “response in competition assay” value in [5] came out at 0.295; in assay [8], 0.312; in assay [9], 0.0175; in assay [10], 0.342. Also, the 50% effective concentration (EC50) was found to be 0.3 nM in assay [6] and 2.83 nM in [7].
